This note sets out measurements from publication PMC8558138.

Values joined by “and” are separate entries in the source; they are usually repeats but may differ in a detail not shown here. Identical values can stand only once. Like-named read-outs stand apart in the source and are kept apart here.

The target in assay [1] is Purified recombinant full-length HERV-W ENV protein (pHERV-W ENV) produced in E. coli (human). Put plainly: automated capillary Western blot (Simple Western, WES); purified rENV incubated up to 24 h at 37 °C in DMEM with 10% FBS (also with 1.5% SDS overnight: only a low proportion of hexamer); samples denatured at 95 °C; detection with GN_mAb_Env01; denaturation-resistant oligomers.

The target is the same in assay [2]. Put plainly: automated capillary Western blot (Simple Western, WES); purified rENV monomers incubated in serum-free DMEM with sulfatides from bovine brain; detection with GN_mAb_Env01, or GN_mAb_Env04 after deglycosylation.
For assay [3], the target named is pHERV-W ENV expressed in transfected HEK293T cells (pCMV-HERV-W ENV) (human). The assay can be described thus: automated capillary Western blot (Simple Western, WES); lysates of transfected HEK293T cells in RIPA with 1% fos-cholin 16, soluble and insoluble fractions, denatured at 95 °C; 12-230 kDa and 66-440 kDa matrices; detection with GN_mAb_Env01, GN_mAb_Env04, GN_mAb_Env-K01 or anti-FLAG.

Assay [4] shares this target. Described as above. This is another data set of the same source.
Assay [5] deals with pHERV-W ENV soluble antigen from MS brain active lesions (human (endogenous in MS brain lesions)). Put plainly: automated capillary Western blot (Simple Western, WES); soluble fraction of frozen brain white matter blocks (MS active lesions), fos-cholin 16 extraction, >= 120 kDa enriched on AMICON, denaturing conditions; detection with GN_mAb_Env01-biotin, or GN_mAb_Env04 after deglycosylation.

As a reminder, the stoichiometry N is the number of molecules, sites or subunits per partner or assembly. Consider “Purified recombinant full-length HERV-W ENV protein (pHERV-W ENV) produced in E. coli (natural protein)”, for which the stoichiometry N is 6 and 2 in assay [1]; 6 in assay [2].
Consider “pHERV-W ENV expressed in transfected HEK293T cells (pCMV-HERV-W ENV) (natural protein)”, for which the stoichiometry N in assay [3] was found to be 2; in assay [4] it was 3.
As to “pHERV-W ENV soluble antigen from MS brain active lesions (natural protein)”, the stoichiometry N in assay [5] worked out at 6.
